Tests used:
Lung Cancer = assay: Clinical monotherapy of rhTNFm1, lung cancer; assay type: in vivo, human
Text: (§1) Patients were selected based on the following criteria: i) measurable, objective tumor; ii) Karnofsky performance status (KPS)≧60; iii) age 18-75; iv) major organs in basically normal condition; v) no chemotherapy, radiotherapy and biologic therapy within the last month; vi) predicted ≧3 mon. survival; and vii) with patient's informed consent signed.
(§2) Patients were excluded based on the following criteria: i) with history of allergic reactions to TNF or its derivatives; ii) pregnant or lactating women; iii) major organs with obvious damages or malfunction; iv) in ≧38° C. fever; v) with obvious tendency to haemorrhage; vi) with history of hypo- or hypertension; vii) with serious albuminemia; and viii) with strong tendency of disobedience or resistance.
(§3) Patients were removed from the evaluation if any of the following conditions apply: i) treatment was not completed according to the protocol; ii) incomplete records; and iii) treatment using cancer therapies not in the protocol. However, patients who withdrew due to adverse reactions to the therapy were still included in the evaluation.
The results of the treatment of tumors were evaluated based the following criteria: i) complete response (CR)—complete disappearance of observable pathological changes for at least 4 weeks; ii) partial response (PR)—reduction by ≧50% in tumor size measured by the product of the maximum circular and vertical dimensions for at least 4 weeks; iii) minimum response (MR)—reduction by >25% but <50% in tumor size measured by the product of the maximum circular and vertical dimensions for at least 4 weeks; iv) stabilized (SD)—reduction by ≦25% but without increase by >25% in tumor size measured by the product of the maximum circular and vertical dimensions for at least 4 weeks; and progression (PD): increase by >25% in tumor size in one or more sites.
(§4) Patients rested on day 1 and 2. The treatment cycle was 3-4 weeks.

[1] = test system: malignant pleural effusion; assay: Clinical monotherapy of rhTNFm1, malignant pleural effusion; assay type: in vivo, human; conditions: 141 patients
Text: as §1, §2, §3
The results of the treatment of malignant pleural effusion (or hydrothorax) and ascites were evaluated based on a modified Millar standard (Millar J W, Hunfer A M, Home N W. (1980) “Inerapleural immunotherapy with CP”, in Recurrent Malignant Pleural Effusions. Thorax 35:856): i) complete response (CR)—complete disappearance of pleural effusion or ascites for at least 1 month; ii) partial response (PR)—reduction by at least 1 grade for at least 1 month; iii) minimum response (MR)—reduction in the levels of pleural effusion or ascites within the same grade for at least 1 month; iv) stabilized (SD)—levels of pleural effusion or ascites maintained within the same grade for at least 1 month; and progressed (PD): increase in the levels of pleural effusion or ascites compared with those before the treatment.
as §4
It is noted that Table III includes the patients who withdrew due to […], including 1 with malignant pleural effusion and 1 with malignant ascites. For patients with malignant ascites, rhTNFm1 was reconstituted in 30-50 ml normal saline and administered intraperitoneally (i.p.) at 2,000,000-3,000,000 units each time, 1-2 times a week, with 2-3 weeks as one treatment cycle. Optionally, rhTNFm1 was administered to the patients by alternating between i.p. injection and i.v. injection (at 600,000-900,000 unit/m^2 per day continuing for 28 days as one treatment cycle). On the day when rhTNFm1 was administered via i.p. injection, administration of rhTNFm1 via i.v. injection was stopped.

[2] = in vivo
Experimental: Patients with the following malignancy: malignant lymphoma, lung cancer, melanoma, breast cancer, liver cancer, kidney cancer, colon cancer, pleural effusion and ascites were treated with a monotherapy of the recombinant protein rhTNFm1 described above.
Patients were treated with rhTNFm1 at 600,000-900,000 unit/m^2 (about 1-50 μg/m^2 depending on the specific bioactivity of a particular lot) per day, 5 times a week (day 3-7) via i.v. injection. Patients rested on day 1 and 2. The treatment cycle was 3-4 weeks.

[3] = Lung Cancer, 20 patients, monotherapy
[4] = patient count, Lung Cancer, 20 patients, monotherapy

B1: rhTNFm1: Recombinant human TNF-α mutant 1 expressed in E. coli; SEQ ID NO: 3 with N-terminal methionine (FIG. 1, 2) (protein)
chain: MRKRKPVAHVVANPQAEGQLQWLNRRANALLANGVELRDNQLVVPSEGLYLIYSQVLFKGQGCPSTHVLLTHTISRIAVSYQTKVNLLSAIKSPCQRETPEGAEAKPWYEPIYLGGVFQLEKGDRLSAEINRPDYLDFAESGQVYFGIIAQ
modifications: rhTNFm1 with Met
- Response Rate (%) CR (Lung Cancer; [3]): 0.00%
- Response Rate (%) CR + PR (Lung Cancer; [3]): 5.00%
- Response Rate (%) PR (Lung Cancer; [3]): 5.00%
- pleural fluid, reexamination about 1 month later (Lung Cancer; one lung cancer patient): little pleural fluid remained
- tumor diameter, reexamination about 1 month later, CT scanning (Lung Cancer; one lung cancer patient): 3.5 cm
- tumor diameter after the treatment, CT scanning (Lung Cancer; one lung cancer patient, before 5 cm): 2.5 cm
- quality of life score after the treatment (Lung Cancer; one lung cancer patient, before 40): 53
- KPS after the treatment (Lung Cancer; one lung cancer patient, before 70): 90
- pleural fluid after the treatment (Lung Cancer; one lung cancer patient, before a large amount of pleural fluid): small amount of pleural fluid remained
- Efficacy CR (Lung Cancer; [4]): 0
- Efficacy MR (Lung Cancer; [4]): 2
- Efficacy PD (Lung Cancer; [4]): 4
- Efficacy PR (Lung Cancer; [4]): 1
- Efficacy SD (Lung Cancer; [4]): 13
- Response Rate (%) CR [1]: 9.93%
- Response Rate (%) PR [1]: 64.54%
- Efficacy CR ([1]; patient count): 14
- Efficacy MR ([1]; patient count): 9
- Efficacy PD ([1]; patient count): 1
- Efficacy PR ([1]; patient count): 91
- Efficacy SD ([1]; patient count): 26
- adverse effects compared to wild type TNF-α [2]: much fewer and weaker adverse effects
- duration of chill [2]: ≤ 30 min
- duration of chills [2]: no more than half an hour
- duration of fever [2]: no more than half an hour
- fever grade during the treatment [2]: Grade I
- highest body temperature during the treatment [2]: 37.2 °C
- patients with 3rd degree fever [2]: two
- patients with chills [2]: 23%
- patients with fever below the 2nd degree [2]: About 38%
- patients with mild chills [2]: 11%
- patients with slight chills [2]: 12%
- time of occurrence of chills after the administration [2]: ≤ 30 min
- time of occurrence of fever post administration [2]: 1 to 2 h
- adverse reactions during the treatment ([2]; iv): slight asthenia
